Tests used:
[1] = molecular target: E2CTD, C-terminal toxin domain of the GA1 T6SS effector E2 from Parabacteroides sp. D25 (Parabacteroides sp. D25); assay: ITC; conditions: natural protein
[2] = molecular target: E2CTD, C-terminal toxin domain of the GA1 T6SS effector E2 from Parabacteroides sp. D25 (Parabacteroides sp. D25); assay: SEC-MALS; co-purified E2CTD-I2 complex at 2 mg/ml, Superdex 200 Increase 10/300, MiniDAWN detector and Optilab

| Substance | Kd [1] | stoichiometry N [2] |
| --- | --- | --- |
| I2^PV, divergent cognate I2 protein from P. vulgatus AF31-3 | 5.2 nM |  |
| I2^BU, divergent cognate I2 protein from B. uniformis 82G1 | 18 nM |  |
| cognate I2 immunity protein from Parabacteroides sp. D25, expressed and purified alone | 27 nM |  |
| cognate I2 immunity protein from Parabacteroides sp. D25, untagged, co-expressed with E2CTD (natural protein) |  | 1 |
